Where “and” joins values, the source holds several entries; their conditions need not be identical. Equal entries are not always repeated.
T1: Cys106-oxidized DJ-1 recombinant protein (human), Q99497
T1 chain: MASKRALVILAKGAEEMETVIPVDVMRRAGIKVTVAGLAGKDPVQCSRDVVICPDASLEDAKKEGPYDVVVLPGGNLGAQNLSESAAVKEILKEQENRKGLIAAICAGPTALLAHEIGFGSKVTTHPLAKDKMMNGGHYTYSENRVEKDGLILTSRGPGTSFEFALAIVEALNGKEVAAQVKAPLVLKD

T2: DJ-1 recombinant protein (human), Q99497
T2 chain: T1 chain

B1: Cys106-oxidized DJ-1 recombinant protein, Q99497 1-189 (natural protein)
chain: T1 chain
B2: DJ-1 recombinant protein, Q99497 1-189 (natural protein)
chain: T1 chain

Tests used:
Details in all cases: remark: other sources report otherwise
[1] = molecular target: T1, Cys106-oxidized DJ-1 recombinant …; experiment: high-speed atomic force microscopy
[2] = molecular target: T1, Cys106-oxidized DJ-1 recombinant …; experiment: SDS-PAGE of HMW bands
[3] = molecular target: T1, Cys106-oxidized DJ-1 recombinant …; experiment: SEC
[4] = molecular target: T2, DJ-1 recombinant protein (human), Q99497; experiment: high-speed atomic force microscopy
[5] = molecular target: T2, DJ-1 recombinant protein (human), Q99497; experiment: SEC

| Binder | stoichiometry N [1] | stoichiometry N [2] | stoichiometry N [3] | stoichiometry N [4] | stoichiometry N [5] |
| --- | --- | --- | --- | --- | --- |
| B1 | 4 and 6 | 2 and 4 | 2 |  |  |
| B2 |  |  |  | 2 | 2 |

Source: PMC6648325
